From the Immune Epitope Database (IEDB) come the findings set out here.

One assay concerns the target HLA-B*44:02. Put plainly: IEDB peptide-MHC binding, purified MHC/competitive/radioactivity; filed as Kd, often an IC50 or EC50 that approximates it; ≥ and ≤ were set here for values at or beyond the usual limits of such assays.
Another assay concerns the target HLA-B*40:01. The description is as above.
A further assay addresses HLA-A*68:02. The assay is described as above.
The next assay has as its target HLA-A*02:02. The description is as above.
The target in the next assay is HLA-A*02:06. Described as above.
The next assay has as its target HLA-A*02:03. Described as above.
In a further assay the target is HLA-B*51:01. Put plainly: IEDB peptide-MHC binding, purified MHC/competitive/fluorescence; filed as Kd, often an IC50 or EC50 that approximates it; ≥ and ≤ were set here for values at or beyond the usual limits of such assays.
In a further assay the target is HLA-A*26:01. Put plainly: IEDB peptide-MHC binding, purified MHC/competitive/radioactivity; filed as Kd, often an IC50 or EC50 that approximates it; ≥ and ≤ were set here for values at or beyond the usual limits of such assays.
For the next assay, the target named is HLA-A*32:01. The description is as above.
For another assay, the target named is HLA-A*02:01. The assay is described as above.
A further assay deals with HLA-B*15:01. Put plainly: IEDB peptide-MHC binding, purified MHC/competitive/fluorescence; filed as Kd, often an IC50 or EC50 that approximates it; ≥ and ≤ were set here for values at or beyond the usual limits of such assays. The following applies: source organism: Human immunodeficiency virus 1.
The target in the next assay is HLA-B*44:03. Put plainly: IEDB peptide-MHC binding, purified MHC/competitive/radioactivity; filed as Kd, often an IC50 or EC50 that approximates it; ≥ and ≤ were set here for values at or beyond the usual limits of such assays.
A further assay concerns the target HLA-A*23:01. The assay is described as above. To be noted: source organism: Mammarenavirus juninense.
A further assay deals with HLA-A*24:02. The assay is described as above. The following applies: source organism: Mammarenavirus juninense.
In the next assay the target is HLA-A*29:02. The assay is described as above.
A further assay deals with HLA-A*30:02. The assay is described as above.
For the next assay, the target named is HLA-A*30:01. The description is as above.
The target in the next assay is HLA-A*01:01. The assay is described as above.
The target in a further assay is HLA-B*07:02. Put plainly: IEDB peptide-MHC binding, purified MHC/direct/fluorescence; filed as Kd, often an IC50 or EC50 that approximates it; ≥ and ≤ were set here for values at or beyond the usual limits of such assays. The following applies: source organism: Orthohantavirus dobravaense.
For the next assay, the target named is HLA-B*58:01. The description is as above. To be noted: source organism: Vibrio vulnificus YJ016.
The target of the next assay is HLA-B*57:01. The assay is described as above. To be noted: source organism: Vibrio vulnificus YJ016.
Setting [1] is: source organism: Dengue virus 1 Brazil/97-11/1997.
Where [2] appears, read: source organism: Dengue virus 4 Philippines/H241/1956.
Where [3] appears, read: source organism: Vaccinia virus WR.
[4] abbreviates: source organism: Dengue virus 3 Martinique/1243/1999.
Setting [5] is: source organism: Hepatitis C virus (isolate BK).
Where [6] appears, read: source organism: Dengue virus 2 Jamaica/1409/1983.
[7] abbreviates: source organism: Trypanosoma cruzi.
The mark [8] stands for this setting: source organism: Mammarenavirus juninense.
The mark [9] stands for this setting: source organism: Mammarenavirus choriomeningitidis.
[10] abbreviates: source organism: Mammarenavirus brazilense.

For IETLMLLAL, the dissociation constant (Kd) with HLA-B*44:02 (setting [1]) came out at 1340 nM; with HLA-B*40:01 (setting [1]), 10.7 nM.
In the case of ITPRSPSVEV, the Kd with HLA-A*68:02 (setting [2]) worked out at 575 nM.
Regarding MMLVPLITV, the Kd was 1020 nM in the assay with HLA-A*02:02 (setting [3]), not below 77100 nM with HLA-A*02:06 (setting [3]), not below 52100 nM in the assay with HLA-A*02:03 (setting [3]) and 5160 nM with HLA-A*68:02 (setting [3]).
For EPINMFLFI, the Kd in the assay with HLA-B*51:01 (source organism: Bacillus anthracis str. A0442) came out at 465 nM.
Take DTAWDFGSV: the Kd with HLA-A*68:02 (setting [4]) was 1.5 nM; in the assay with HLA-A*26:01 (setting [4]), 172 nM.
In the case of GLDLQPCIDL, in the assay with HLA-A*68:02 (source organism: Homo sapiens), the Kd is not below 60000 nM.
KTPVESWEEI: the Kd with HLA-A*32:01 (source organism: Dengue virus 2 Peru/IQT2913/1996) was found to be 1610 nM.
Consider QIHLAIMAV, for which the dissociation constant Kd with HLA-A*68:02 (setting [2]) was found to be 287 nM.
Take VLTDFKTWL: the Kd was determined as 1.56 nM with HLA-A*02:02 (setting [5]); 140 nM in the assay with HLA-A*02:06 (setting [5]); 7.3 nM with HLA-A*02:03 (setting [5]); 4.06 nM with HLA-A*02:01 (setting [5]); 2300 nM with HLA-A*68:02 (setting [5]).
On to WELVDKERAL, for which the dissociation constant (Kd) in the assay with HLA-B*40:01 (setting [2]) was determined as 24 nM.
Sequence ILGLNKIVRMY came in with a Kd with HLA-B*15:01 not below 20000 nM.
Turning to EVAETQHGTV, the equilibrium dissociation constant (Kd) in the assay with HLA-A*68:02 (setting [1]) is 1.53 nM.
Consider ATMANEMGFL, for which the Kd with HLA-A*68:02 (setting [6]) is 68.4 nM.
As to DVSRPTTVM, the Kd with HLA-A*02:02 (setting [7]) is not below 33600 nM; with HLA-A*02:06 (setting [7]), 15000 nM; with HLA-A*02:03 (setting [7]), 15400 nM; with HLA-A*02:01 (setting [7]), not below 69400 nM; with HLA-A*68:02 (setting [7]), 1010 nM.
Consider AEAIFKLTYQ, for which the Kd with HLA-B*44:02 (setting [6]) was 200 nM; in the assay with HLA-B*44:03 (setting [6]), 267 nM; with HLA-B*40:01 (setting [6]), 1430 nM.
Turning to GERKKLKPRW, the Kd in the assay with HLA-B*44:02 (setting [6]) was found to be 839 nM; with HLA-B*44:03 (setting [6]), 1450 nM.
For the sequence LCLSGDGWPY, the dissociation constant Kd is 16900 nM with HLA-A*32:01 (setting [8]); not below 70000 nM with HLA-A*23:01; not below 70300 nM with HLA-A*24:02; 148 nM in the assay with HLA-A*29:02 (setting [8]); 1460 nM with HLA-A*30:02 (setting [8]); not below 69700 nM with HLA-A*26:01 (setting [8]). The dissociation constant Kd in the assay with HLA-A*30:01 (setting [8]) was not below 55600 nM; with HLA-A*01:01 (setting [8]) it was 1030 nM.
For MSTYGWNLV, the equilibrium dissociation constant (Kd) was found to be 11.9 nM in the assay with HLA-A*68:02 (setting [6]) and 8500 nM in the assay with HLA-A*01:01 (setting [6]).
As for EIFSMMVSSF, the Kd with HLA-A*32:01 (setting [9]) was 1290 nM; with HLA-A*29:02 (setting [9]), 1370 nM; in the assay with HLA-A*30:02 (setting [9]), 13200 nM; with HLA-A*26:01 (setting [9]) it was 3.79 nM; with HLA-A*30:01 (setting [9]) it was 940 nM; with HLA-A*01:01 (setting [9]), 7590 nM.
Regarding ITQLMPFGC, the Kd with HLA-A*02:01 (source organism: Homo sapiens) came to 6290 nM.
In the case of MEDKTHVSSW, the dissociation constant Kd with HLA-B*44:02 (setting [1]) was 82.3 nM; with HLA-B*44:03 (setting [1]), 111 nM.
Regarding AGADTSEVHW, the Kd with HLA-B*44:02 (setting [2]) worked out at 4920 nM.
As for LPTRCRLEI, the equilibrium dissociation constant (Kd) with HLA-B*51:01 (source organism: Kurkino virus) is not below 20000 nM; with HLA-B*07:02 it was 3.9 nM.
On to VEDYGFGIF, for which, in the assay with HLA-B*40:01 (setting [1]), the Kd worked out at 388 nM.
For ITIAVASGL, the Kd with HLA-A*68:02 (source organism: Dengue virus 4 Dominica/814669/1981) stood at 31.1 nM.
WMSPTYQSW: the dissociation constant (Kd) in the assay with HLA-B*58:01 is 8.3 nM; with HLA-B*57:01 it was 62.4 nM.
Regarding ESAQPGLLSY, the Kd is not below 69900 nM with HLA-A*32:01 (setting [10]); 3090 nM with HLA-A*29:02 (setting [10]); 1690 nM with HLA-A*30:02 (setting [10]); 14.3 nM with HLA-A*26:01 (setting [10]); not below 70400 nM with HLA-A*30:01 (setting [10]); 69.8 nM in the assay with HLA-A*01:01 (setting [10]).
Consider EMREQHDAQV, for which the values for the equilibrium dissociation constant (Kd) in the assay with HLA-A*02:06 (source organism: Homo sapiens) and in the assay with HLA-A*68:02 (source organism: Homo sapiens) were not below 68500 nM and 456 nM, respectively.
For KINEVVEIF, the Kd in the assay with HLA-A*32:01 (setting [3]) stood at 19.3 nM.

In general, Kd refers to the equilibrium constant for the complex coming apart.
